Assay results as given in patent US20250289865A1 (TIOC THERAPEUTICS, published 2025).

T1: AFP peptide on HLA-A*02:01 (human)
T1 peptide: FMNKFIYEI


Tests used:
[1] = molecular target: T1, AFP peptide on HLA-A*02:01; experiment: killing
[2] = molecular target: peptide on A2 positive (human); experiment: LDH release; CD8+ T cells, E:T 1:1; AFP-negative, A2-positive control cells. No unit is printed with the value.; fusion: antibody heavy chain variable region (Gln105Cys) on the beta chain, with free VL Ala43Cys; settings: chains Valpha:Vbeta
[3] = molecular target: … short peptide (AFP 158-166) presented on the HLA-A*0201 molecule; experiment: cell-based or functional assay

Binder | binding result [1] | EC50 of fusion protein in killing [2] [µM] | EC50 of CD8+ T cell killing (LDH release), HepG2 (A2 positive, AFP positive) [3] [µM]
AFP TCR (TCR, V domains shown) Valpha: SQQGEEDPQALSIQEGENATMNCSYKDRITNLQWYRQNSGRGLVHLILIRSNEREKHSGRLRVTLDTSKKSSSLLITASRAADTASYFCATDLEAEYKYIFGTGTRLKVLA Vbeta: ETGVTQSPTHLIKTRGQQVTLRCSSQSGHNTVSWYQQALGQGPQFIFQYYRQVANGRGNFPPRFSGLQFPNYSSELNVNALELDDSALYLCASSKDAGPVFFGQGTRLTVV | recognises | 2.7 | –
VH105-TCR β-AFP multi-domain bifunctional fusion molecule (other) TCR alpha: SQQGEEDPQALSIQEGENATMNCSYKDRITNLQWYRQNSGRGLVHLILIRSNEREKHSGRLRVTLDTSKKSSSLLITASRAADTASYFCATDLEAEYKYIFGTGTRLKVLANIQNPDPAVYQLRDSKSSDKSVCLFTDFDSQTNVSQSKDSDVYITDKTVLDMRSMDFKSNSAVAWSNKSDFACANAFNNSIIPEDTFFCSPESS EVQLVESGGGLVQPGGSLRLSCAASGYSFTGYTMNWVRQAPGKGLEWVALINPYKGVSTYNQKFKDRFTISVDKSKNTAYLQMNSLRAEDTAVYYCARSGYYGDSDWYFDVWGCGTLVTVSSGGGGSETGVTQSPTHLIKTRGQQVTLRCSSQSGHNTVSWYQQALGQGPQFIFQYYRQVANGRGNFPPRFSGLQFPNYSSELNVNALELDDSALYLCASSKDAGPVFFGQGTRLTVVEDLKNVFPPEVAVFEPSECEISHTQKATLVCLATGFYPDHVELSWWVNGKEVHSGVSTDPQPLKEQPALNDSRYALSSRLRVSATFWQNPRNHFRCQVQFYGLSENDEWTQDRAKPVTQIVSAEAWGRAD VL: DIQMTQSPSSLSASVGDRVTITCRASQDIRNYLNWYQQKPGKCPKLLIYYTSRLESGVPSRFSGSGSGTDYTLTISSLQPEDFATYYCQQGNTLPWTFGQGTKVEIKR | – | – | 0.0105
